Test results taken from article PMC3892207 (Journal of the American Chemical Society, 2013).

Experiments:
Experiment in all cases: SEC
[1] = target: T1, S100A9(C3S) truncated after residue 101 (S100A9 subunit of CP-Ser-Δ101) (human, UniProt P06702 1-90, C3S)
T1 sequence: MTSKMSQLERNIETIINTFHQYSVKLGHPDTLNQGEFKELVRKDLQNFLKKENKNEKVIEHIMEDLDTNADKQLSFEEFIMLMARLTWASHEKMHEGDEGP

[2] = target: T2, S100A9(C3S) with K106A (S100A9 subunit of CP-Ser(K106A)) (human, UniProt P06702 1-114, C3S | K106A)
T2 sequence (looked up): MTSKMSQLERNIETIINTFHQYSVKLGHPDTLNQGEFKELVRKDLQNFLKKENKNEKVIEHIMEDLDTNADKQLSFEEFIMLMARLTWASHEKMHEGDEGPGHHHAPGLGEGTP

S100A9(C3S) = target: T3, S100A9(C3S) (human, UniProt P06702 1-90, C3S)
T3 sequence: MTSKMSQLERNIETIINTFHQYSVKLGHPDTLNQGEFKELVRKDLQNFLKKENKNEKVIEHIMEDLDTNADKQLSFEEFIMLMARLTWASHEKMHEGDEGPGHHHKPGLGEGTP

[3] = target: T4, S100A9(C3S) with D98A (S100A9 subunit of CP-Ser(D98A)) (human, UniProt P06702 1-114, C3S | D98A)
T4 sequence (looked up): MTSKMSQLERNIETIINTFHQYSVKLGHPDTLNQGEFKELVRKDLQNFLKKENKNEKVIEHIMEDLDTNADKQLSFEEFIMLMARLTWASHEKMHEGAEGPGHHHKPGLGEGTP

[4] = target: T5, S100A9(C3S) with E99A (S100A9 subunit of CP-Ser(E99A)) (human, UniProt P06702 1-114, C3S | E99A)
T5 sequence (looked up): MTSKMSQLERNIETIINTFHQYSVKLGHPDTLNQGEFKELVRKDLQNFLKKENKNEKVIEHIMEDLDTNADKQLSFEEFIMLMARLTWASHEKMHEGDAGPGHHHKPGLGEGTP

[5] = target: T6, S100A9(C3S) with H104A (S100A9 subunit of CP-Ser(H104A)) (human, UniProt P06702 1-114, C3S | H104A)
T6 sequence (looked up): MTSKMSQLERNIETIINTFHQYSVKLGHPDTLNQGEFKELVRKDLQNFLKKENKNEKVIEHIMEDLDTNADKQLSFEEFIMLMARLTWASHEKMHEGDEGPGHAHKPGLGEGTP

[6] = target: T7, S100A9(C3S) with E111A (S100A9 subunit of CP-Ser(E111A)) (human, UniProt P06702 1-114, C3S | E111A)
T7 sequence (looked up): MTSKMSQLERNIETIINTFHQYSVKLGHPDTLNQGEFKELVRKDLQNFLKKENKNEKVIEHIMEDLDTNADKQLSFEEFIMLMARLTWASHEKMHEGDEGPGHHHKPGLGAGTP

[7] = target: T8, human-mouse S100A9 chimera (S100A9 subunit of CP-Ser-mT) (human | mouse, UniProt P06702 1-90, C3S)
T8 sequence: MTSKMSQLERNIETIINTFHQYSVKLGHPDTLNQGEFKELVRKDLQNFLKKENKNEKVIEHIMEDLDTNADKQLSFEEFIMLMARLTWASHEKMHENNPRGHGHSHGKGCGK

[8] = target: T9, S100A9(C3S) with H105A (S100A9 subunit of CP-Ser(H105A)) (human, UniProt P06702 1-114, C3S | H105A)
T9 sequence (looked up): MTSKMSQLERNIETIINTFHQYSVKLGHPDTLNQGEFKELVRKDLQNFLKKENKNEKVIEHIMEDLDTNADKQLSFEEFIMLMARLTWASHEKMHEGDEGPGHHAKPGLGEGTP

[9] = target: T10, S100A9(C3S) with H103A (S100A9 subunit of CP-Ser(H103A)) (human, UniProt P06702 1-114, C3S | H103A)
T10 sequence (looked up): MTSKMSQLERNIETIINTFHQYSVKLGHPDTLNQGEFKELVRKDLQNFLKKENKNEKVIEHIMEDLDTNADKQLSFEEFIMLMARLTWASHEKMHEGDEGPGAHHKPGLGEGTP

[10] = target: T11, S100A9(C3S) with E96A (S100A9 subunit of CP-Ser(E96A)) (human, UniProt P06702 1-114, C3S | E96A)
T11 sequence (looked up): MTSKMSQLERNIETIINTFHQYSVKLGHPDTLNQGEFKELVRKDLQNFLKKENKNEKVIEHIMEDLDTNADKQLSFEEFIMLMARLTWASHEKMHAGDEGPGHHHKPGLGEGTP

binding result [1]: binds
binding result [2]: binds
binding result (S100A9(C3S)): binds
binding result [3]: binds
binding result [4]: binds
binding result [5]: binds
binding result [6]: binds
binding result [7]: binds
binding result [8]: binds
binding result [9]: binds
binding result [10]: binds
B1: S100A8(C42S) (natural protein, human)
chain: MLTELEKALNSIIDVYHKYSLIKGNFHAVYRDDLKKLLETESPQYIRKKGADVWFKELDINTDGAVNFQEFLILVIKMGVAAHKKSHEESHKE
